Assay results reported in patent publication WO2011014457A1 (dated 2011).
Each block holds one binder with its values, some of them ahead of it.

Key:
human MerFc = molecular target: T1, human MerFc (human, UniProt Q12866 21-499, limits assumed); test: ELISA, Fc fusion captured on anti-human IgG Fc
T1 sequence (looked up): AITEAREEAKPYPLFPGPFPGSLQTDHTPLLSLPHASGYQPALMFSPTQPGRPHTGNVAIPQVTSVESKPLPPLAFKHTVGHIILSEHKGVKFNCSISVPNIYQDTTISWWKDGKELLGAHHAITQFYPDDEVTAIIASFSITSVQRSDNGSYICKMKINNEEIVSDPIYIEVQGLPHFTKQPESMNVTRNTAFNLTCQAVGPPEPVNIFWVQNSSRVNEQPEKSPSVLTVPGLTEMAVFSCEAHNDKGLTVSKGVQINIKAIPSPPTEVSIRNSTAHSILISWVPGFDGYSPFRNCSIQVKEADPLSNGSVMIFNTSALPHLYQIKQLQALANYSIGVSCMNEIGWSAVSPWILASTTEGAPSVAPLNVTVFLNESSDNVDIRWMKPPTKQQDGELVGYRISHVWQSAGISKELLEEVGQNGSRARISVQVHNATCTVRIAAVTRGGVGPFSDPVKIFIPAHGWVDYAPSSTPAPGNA

human Tyro-3Fc = molecular target: T2, human Tyro-3Fc (human, UniProt Q06418 41-428, limits assumed); test: ELISA, Fc fusion captured on anti-human IgG Fc
T2 sequence (looked up): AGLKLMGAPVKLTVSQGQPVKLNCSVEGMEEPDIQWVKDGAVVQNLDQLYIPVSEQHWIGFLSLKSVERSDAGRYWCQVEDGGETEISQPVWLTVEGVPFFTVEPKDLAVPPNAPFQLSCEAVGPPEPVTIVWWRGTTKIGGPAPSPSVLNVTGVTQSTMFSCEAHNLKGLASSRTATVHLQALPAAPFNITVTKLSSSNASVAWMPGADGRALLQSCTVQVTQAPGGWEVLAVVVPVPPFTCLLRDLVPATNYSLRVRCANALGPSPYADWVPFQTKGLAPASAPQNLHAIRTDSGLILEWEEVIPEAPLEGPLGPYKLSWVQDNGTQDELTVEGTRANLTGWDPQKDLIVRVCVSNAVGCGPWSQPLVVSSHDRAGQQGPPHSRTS

human AxI ECD-His = molecular target: T3, human AxI ECD-His (human, UniProt P30530 26-451); test: SPR (BIAcore-3000), IgG captured by anti-human IgG, human AxI ECD-His injected
T3 construct: extracellular domain; also called human AxI ECD-His protein; Hu AxI

[1] = molecular target: T4, murine AxI ECD-Fc fusion protein (murine, UniProt Q00993 19-445); test: SPR (BIAcore-3000), murine AxI ECD-Fc captured by anti-human IgG, anti-Axl Fab fragment injected (per methods)
T4 construct: extracellular domain; also called murine AxIFc; mouse AxI.Fc
T4 sequence (Q00993 19-445): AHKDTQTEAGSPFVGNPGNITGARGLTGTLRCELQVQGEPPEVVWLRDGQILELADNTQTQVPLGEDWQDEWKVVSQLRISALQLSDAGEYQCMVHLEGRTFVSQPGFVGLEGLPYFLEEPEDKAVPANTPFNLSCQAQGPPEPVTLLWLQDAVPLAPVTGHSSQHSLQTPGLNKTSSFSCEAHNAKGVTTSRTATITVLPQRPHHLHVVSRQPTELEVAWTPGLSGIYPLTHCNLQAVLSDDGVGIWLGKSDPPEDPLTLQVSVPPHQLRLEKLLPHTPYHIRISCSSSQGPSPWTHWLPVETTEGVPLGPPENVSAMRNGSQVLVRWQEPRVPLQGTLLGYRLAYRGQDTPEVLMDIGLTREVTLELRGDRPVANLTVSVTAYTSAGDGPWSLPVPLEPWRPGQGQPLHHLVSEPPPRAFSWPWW

binding result (human MerFc): no binding | binding result (human Tyro-3Fc): no binding | Kd (human AxI ECD-His): ~1 nM
B1: YW327.6S2 (antibody, V domains shown)
VH: EVQLVESGGGLVQPGGSLRLSCAASGFSLSGSWIHWVRQAPGKGLEWVGWINPYRGYAYYADSVKGRFTISADTSKNTAYLQMNSLRAEDTAVYYCAREYSGWGGSSVGYAMDYWGQGTLV
VL: DIQMTQSPSSLSASVGDRVTITCRASQDVSTAVAWYQQKPGKAPKLLIYSASFLYSGVPSRFSGSGSGTDFTLTISSLQPEDFATYYCQQSYTTPPTFGQGTKVEIKR
notes: also called AxI mAb YW327.6S2

Kd [1]: 0.545 nM
B2: YW327.6S2 Fab fragment (Fab, V domains shown)
VH: B1 VH
VL: B1 VL
notes: also called anti-Axl Fab fragment
